Test results from publication doi:10.1101/2022.06.21.496751 (bioRxiv, 2022).

B1: Ab188 recombinant monoclonal antibody (IgG) (antibody, V domains shown)
VH: EVQLVESGGGLVQPGGSLRLSCAASGFTFINYKMNWVRQAPGKGLEWVSYISSGSDAIYYADSVKGRFTISRDNAKNSLYLQMNSLRDEDTALYYCARGGGYNYGECMDVWGQGTTVTVSS
VL: not shown
B2: Ab445 recombinant monoclonal antibody (IgG) (antibody, V domains shown)
VH: EVQLVESGGGVVQPGTSPRLSCAASGFTFSNSGMHWVRQAPGKGLEWVAVIWYDGSKKYYVDSVKGRFTISRDNSKNTLYLQMNSLRAEDTAVYYCARDGTVAVRGVMNPFFDYWGQGTLVTVSS
VL: DIQLTQSPSSLSASVGDRVTITCQASQDISNYLNWYQQIPGKAPKLLIYDASNLETGVPSRFSGSGSGTDFTFTISSLQPEDIATYYCQQYDNLPYTFGQGTKLEIK
B3: Ab354 recombinant monoclonal antibody (IgG) (antibody, V domains shown)
VH: QVQLVQSGAEVKKPGASVTVSCKASGFLFTGYYMHWVRQAPGQGLEWMGWINPNSGASNYTRKFQGRVTMTRDTSISATYMKLSRLTSDDTAVYYCARDLAFSMVRGALDYWGQGTLVTVSS
VL: QLVLTQPPSASGSPGQSVTISCTGTSSDVGGYNYVSWYQHHPGKAPKLMIYEVSKRPSGVPDRFSGSKSGNTASLTVSGLQAEDEADYYCNSYAGNNNWVFGTGTKVTVL
B4: Ab496 recombinant monoclonal antibody (IgG) (antibody, V domains shown)
VH: EVQLVQSGPEVKKPGTSVKVSCKASGFIFTNSAVQWVRQARGQRLEWIGWIVVGSGNPNYAQKFQERVTITRDRSTSTAYMELSSLTSEDTAVYYCAAFPYYYDNSGSGPWGQGTLVTVSS
VL: DIQLTQSPSSLSASVGDRVTITCQASQDIRNNLNWYQQIPGKAPKLLIYDASNLETGVPSRFSGSASGTDFTFTISSLQPEDVATYYCQQYANLPPFTFGPGTKVDIK
B5: Ab159 recombinant monoclonal antibody (IgG) (antibody, V domains shown)
VH: QVQLVESGGGLVKPGGSLRLSCAASGFTFNNAWMSWVRQAPGKGLEWVGRIKSKTDGGTTDYAAPVKGRFTFSRDDSKNTLYLQMSSLKTEDTALYYCTTADYDILTGTPASPYWGQGTLVTVSS
VL: DIQMTQSPSSLSASVGDRVTITCRASQSITNYLNWYQQKPGKAPKFLIYAASSLQGGVPSRFRGSGSGTDFTLTISSLQPEDFATYYCQQTYSTLWTFGQGTKVEIK
B6: Ab326 recombinant monoclonal antibody (IgG) (antibody, V domains shown)
VH: EVQLVESGGGVVQPGRSLRLSCAASGFTFSHYPMHWVRQAPGRGLEWVAVISYDGSNQHYVDSVKGRFTISRDNSKNTLYLQMNSLRAEDTAVYFCASLITMIRGVPDYWGQGTLVTVSS
VL: DIQMTQSPSSLSASVGDRVTITCRASQSISNYLNWYQQKPGKAPNLLIFAASSLQSGVPSRFSGSGSGTEFTLTISSLQPEDFAAYYCLQTYSTPRTFGQGTRLEIK

target: full-length Spike of SARS-CoV-2 (UniProtKB-P0DTC2) expressed on 293T cells (SARS-CoV-2, UniProt P0DTC2); experiment: flow cytometry on cells

Binder | binding result
B1 | binds
B2 | binds
B3 | binds
B4 | binds
B5 | binds
B6 | binds

target: Spike of the SARS-CoV-2 Omicron (BA.1) variant expressed on 293T cells (SARS-CoV-2, Omicron BA.1, strain); experiment: flow cytometry on cells

Binder | binding result
B1 | binds
